T1: PRAME peptide on HLA-A*02:01 (human)
T1 peptide: SLLQHLIGL

T2: peptide on HLA-A*02:01 (human)
T2 peptide: SLLMWITQC

T3: PRAME peptide on HLA-A*02:01 (human)
T3 peptide: RLDQLLRHV

B1: PN42450 (TCR, V domains shown)
V domain 1: AQRVTQPEKLLSVFKGAPVELKCNYSYSGSPELFWYVQYSRQRLQLLLRHISRESIKGFTADLNKGETSFHLKKPFAQEEDSAMYYCALGNTDKLIFGTGTRLQVFP
V domain 2: DVKVTQSSRYLVKRTGEKVFLECVQDMDHENMFWYRQDPGLGLRLIYFSYDVKMKEKGDIPEGYSVSREKKERFSLILESASTNQTSMYLCASSSPRTGWYGYTFGSGTRLTVV
B2: PN46909 (TCR, V domains shown)
V domain 1: AQTVTQSQPEMSVQEAETVTLSCTYDTSENNYYLFWYKQPPSRQMILVIRQEAYKQQNATENRFSVNFQKAAKSFSLKISDSQLGDTAMYFCAFDYGQNFVFGPGTRLSVLP
V domain 2: NAGVTQTPKFRILKIGQSMTLQCAQDMNHNYMYWYRQDPGMGLKLIYYSVGAGITDKGEVPNGYNVSRSTTEYFPLRLELAAPSQTSVYFCASSYGGGQTEAFFGQGTRLTVV
notes: stained with anti-mouse TCR constant region antibody H57-597) and full-length chains were expressed on CHO cells
B3: PN42845 (TCR, V domains shown)
V domain 1: TQLLEQSPQFLSIQEGENLTVYCNSSSVFSSLQWYRQEPGEGPVLLVTVVTGGEVKKLKRLTFQFGDARKDSSLHITAAQPGDTGLYLCAGIRSNDYKLSFGAGTTVTVRA
V domain 2: EAQVTQNPRYLITVTGKKLTVTCSQNMNHEYMSWYRQDPGLGLRQIYYSMNVEVTDKGDVPEGYKVSRKEKRNFPLILESPSPNQTSLYFCASSSWTAHTEAFFGQGTRLTVV
B4: PN46883 (TCR, V domains shown)
V domain 1: AQKVTQAQTEISVVEKEDVTLDCVYETRDTTYYLFWYKQPPSGELVFLIRRNSFDEQNEISGRYSWNFQKSTSSFNFTITASQVVDSAVYFCALSVSSYNTDKLIFGTGTRLQVFP
V domain 2: NAGVMQNPRHLVRRRGQEARLRCSPMKGHSHVYWYRQLPEEGLKFMVYLQKENIIDESGMPKERFSAEFPKEGPSILRIQQVVRGDSAAYFCASSHRDDTEAFFGQGTRLTVV
notes: as for B2
B5: PN46857 (TCR, V domains shown)
V domain 1: AQKVTQATREISVVEKEDVTLDCVYETRDTTYYLFWYKQPPSGELVFLIRRNSFDEQNEISGRYSWNFQKSTSSFNFTITASQVVDSAVYFCALSEGYGNKLVFGAGTILRVKS
V domain 2: NAGVMQNPRHLVRRRGQEARLRCSPMKGHSHVYWYRQLPEEGLKFMVYLQKENIIDESGMPKERFSAEFPKEGPSILRIQQVVRGDSAAYFCASSHRDDTEAFFGQGTRLTVV
notes: as for B2
B6: PN46880 (TCR, V domains shown)
V domain 1: AQRVTQPEKLLSVFKGAPVELKCNYSYSGSPELFWYVQYSRQRLQLLLRHISRESIKGFTADLNKGETSFHLKKPFAQEEDSAMYYCALSGASGGSYIPTFGRGTSLIVHP
V domain 2: NAGVMQNPRHLVRRRGQEARLRCSPMKGHSHVYWYRQLPEEGLKFMVYLQKENIIDESGMPKERFSAEFPKEGPSILRIQQVVRGDSAAYFCASSHRDDTEAFFGQGTRLTVV
notes: as for B2
B7: PN42833 (TCR, V domains shown)
V domain 1: DAKTTQPPSMDCAEGRAANLPCNHSTISGNEYVYWYRQIHSQGPQYIIHGLKNNETNEMASLIITEDRKSSTLILPHATLRDTAVYYCIVRDTTSGTYKYIFGTGTRLKVLA
V domain 2: EAQVTQNPRYLITVTGKKLTVTCSQNMNHEYMSWYRQDPGLGLRQIYYSMNVEVTDKGDVPEGYKVSRKEKRNFPLILESPSPNQTSLYFCASSLSSTGFSPLHFGNGTRLTVT
B8: PN46871 (TCR, V domains shown)
V domain 1: KQEVTQIPAALSVPEGENLVLNCSFTDSAIYNLQWFRQDPGKGLTSLLLIQSSQREQTSGRLNASLDKSSGRSTLYIAASQPGDSATYLCAVEGTTDSWGKFQFGAGTQVVVTP
V domain 2: AAGVIQSPRHLIKEKRETATLKCYPIPRHDTVYWYQQGPGQDPQFLISFYEKMQSDKGSIPDRFSAQQFSDYHSELNMSSLELGDSALYFCASSSQGQPQHFGDGTRLSIL
notes: as for B2
B9: PN46731 (TCR, V domains shown)
V domain 1: GENVEQHPSTLSVQEGDSAVIKCTYSDSASNYFPWYKQELGKRPQLIIDIRSNVGEKKDQRIAVTLNKTAKHFSLHITETQPEDSAVYFCAAWNYGQNFVFGPGTRLSVLP
V domain 2: AAGVIQSPRHLIKEKRETATLKCYPIPRHDTVYWYQQGPGQDPQFLISFYEKMQSDKGSIPDRFSAQQFSDYHSELNMSSLELGDSALYFCASSLEGSEAFFGQGTRLTVV
notes: as for B2
B10: PN46853 (TCR, V domains shown)
V domain 1: ILNVEQSPQSLHVQEGDSTNFTCSFPSSNFYALHWYRWETAKSPEALFVMTLNGDEKKKGRISATLNTKEGYSYLYIKGSQPEDSATYLCACGGSGNTGKLIFGQGTTLQVKP
V domain 2: AAGVIQSPRHLIKEKRETATLKCYPIPRHDTVYWYQQGPGQDPQFLISFYEKMQSDKGSIPDRFSAQQFSDYHSELNMSSLELGDSALYFCASSSQGQPQHFGDGTRLSIL
notes: as for B2
B11: PN42870 (TCR, V domains shown)
V domain 1: TQLLEQSPQFLSIQEGENLTVYCNSSSVFSSLQWYRQEPGEGPVLLVTVVTGGEVKKLKRLTFQFGDARKDSSLHITAAQPGDTGLYLCAENSGGGADGLTFGKGTHLIIQP
V domain 2: DAGVTQSPTHLIKTRGQQVTLRCSPKSGHDTVSWYQQALGQGPQFIFQYYEEEERQRGNFPDRFSGHQFPNYSSELNVNALLLGDSALYLCASSFTDYGYTFGSGTRLTVV
B12: PN42558 (TCR, V domains shown)
V domain 1: GIQVEQSPPDLILQEGANSTLRCNFSDSVNNLQWFHQNPWGQLINLFYIPSGTKQNGRLSATTVATERYSLLYISSSQTTDSGVYFCVLGGGSQGNLIFGKGTKLSVKP
V domain 2: DAGVTQSPTHLIKTRGQQVTLRCSPKSGHDTVSWYQQALGQGPQFIFQYYEEEERQRGNFPDRFSGHQFPNYSSELNVNALLLGDSALYLCASSFTDYGYTFGSGTRLTVV
B13: PN42815 (TCR, V domains shown)
V domain 1: GESVGLHLPTLSVQEGDNSIINCAYSNSASDYFIWYKQESGKGPQFIIDIRSNMDKRQGQRVTVLLNKTVKHLSLQIAATQPGDSAVYFCAENNYGQNFVFGPGTRLSVLP
V domain 2: EAQVTQNPRYLITVTGKKLTVTCSQNMNHEYMSWYRQDPGLGLRQIYYSMNVEVTDKGDVPEGYKVSRKEKRNFPLILESPSPNQTSLYFCASSLWDSSPLHFGNGTRLTVT
notes: the summary and claims print the pair as 893/805
B14: PN42441 (TCR, V domains shown)
V domain 1: DAKTTQPNSMESNEEEPVHLPCNHSTISGTDYIHWYRQLPSQGPEYVIHGLTSNVNNRMASLAIAEDRKSSTLILHRATLRDAAVYYCIRRPGNQFYFGTGTSLTVIP
V domain 2: EAQVTQNPRYLITVTGKKLTVTCSQNMNHEYMSWYRQDPGLGLRQIYYSMNVEVTDKGDVPEGYKVSRKEKRNFPLILESPSPNQTSLYFCASSLWTGSEAFFGQGTRLTVV
B15: PN42826 (TCR, V domains shown)
V domain 1: DQQVKQNSPSLSVQEGRISILNCDYTNSMFDYFLWYKKYPAEGPTFLISISSIKDKNEDGRFTVFLNKSAKHLSLHIVPSQPGDSAVYFCAASAGSARQLTFGSGTQLTVLP
V domain 2: EAQVTQNPRYLITVTGKKLTVTCSQNMNHEYMSWYRQDPGLGLRQIYYSMNVEVTDKGDVPEGYKVSRKEKRNFPLILESPSPNQTSLYFCASSLYTHTEAFFGQGTRLTVV
B16: PN42895 (TCR, V domains shown)
V domain 1: DQQVKQSSPSLSVQEGRISILNCDYTNSMFDYFLWYKKYPAEGPTFLISISSIKDKNEDGRFTVFLNKSAKHLSLHIVPSQPGDSAVYFCAASAGSARQLTFGSGTQLTVLP
V domain 2: EAQVTQNPRYLITVTGKKLTVTCSQNMNHEYMSWYRQDPGLGLRQIYYSMNVEVTDKGDVPEGYKVSRKEKRNFPLILESPSPNQTSLYFCASSLWSNTEAFFGQGTRLTVV

Columns and labels:
[1] = molecular target: T1, PRAME peptide on HLA-A*02:01; test: multimer staining
[2] = molecular target: T2, peptide on HLA-A*02:01; test: activation reporter or marker
[3] = molecular target: HLA-A2/PRAME (425-433) on HLA-A2*01 HEK293T cells pulsed with PRAME 425-433 peptide (human); test: cell-based or functional assay
[4] = molecular target: T4, soluble HLA:A2:PRAME (425-433) tetramer (human); test: flow cytometry, soluble pMHC tetramer on CHO cells expressing the TCR;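 also: CHO cells transfected with vectors encoding full-length paired TCR alpha and beta chains, stained with PRAME/HLA tetramer and read by flow cytometry, each value reflects one listed TCR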
T4 construct: Commercial tetramer (MBL International); construct limits, biotin tag and streptavidin/fluorophore not described; also called PRAME/HLA tetramer reagent; PRAME (425-433)/HLA-A2

[5] = molecular target: T3, PRAME peptide on HLA-A*02:01; test: multimer staining
[6] = molecular target: T5, soluble HLA-A2:PRAME (312-320) tetramer (human); test: flow cytometry, soluble pMHC tetramer on CHO cells expressing the TCR
T5 construct: Commercial tetramer (MBL International); construct limits, biotin tag and streptavidin/fluorophore not described; also called PRAME/HLA tetramer reagent

binding result [1]	binding result [2]	EC50 (µM) of peptide, AP1 luciferase reporter in Jurkat cells expressing the TCR [3] [µM]	Cell Frequency ≥1000 MFI, ≥1% (% tetramer positive cells in the Ag+ gate) [4] [%]	binding result [5]	Cell Frequency ≥1000 MFI, ≥1% (% tetramer positive cells in the Ag+ gate) [6] [%]	Binder
recognises	no recognition	0.0336	62.2			B1
				recognises	52.6	B2
recognises	no recognition	0.911	10.5			B3
				recognises	64.7	B4
				recognises	53.9	B5
				recognises	31.9	B6
recognises	no recognition	0.0479	6.86			B7
				recognises	44.7	B8
				recognises	15.7	B9
				recognises	35.4	B10
recognises	no recognition	0.13	7.27			B11
recognises	no recognition	0.261	85.7			B12
recognises	no recognition	0.126	4.35			B13
recognises	no recognition	0.821	15.5			B14
recognises	no recognition	4.92	9.26			B15
recognises	no recognition	0.94	4.09			B16

Reference: US20230060095A1 (Regeneron, published 2023)
